Experiment: yeast display, Sf9 membrane polyspecificity reagent, FACS + sequencing; frameworks hold sequencing errors
In short: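 In a synthetic yeast display library (Saccharomyces cerevisiae BJ5465), nanobody expression was induced with galactose for 36–48 hours. FACS gates were set low and high (top ~1%) using anti-HA fluorescence for expression and streptavidin fluorescence for binding of the Sf9 membrane reagent. Each polyreactivity label is drawn from the gate of origin.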

QVQLVESGGGLVQAGGSLRLSCAASGFIFDYYAMGWYRQAPGTEREFVAAITWDGGSTYYADSVKGRFTISRDNAKNTVYLQMNSLKTEDTAVYYCAAETWGEYGYWGQGTQVTVSS
polyreactivity (PSR sort gate): low polyreactivity

QVQLVESGGGLVQAGGSLRLSCAASGFIFDYYAMGWYRQAPVKERELVAAISWSGGSTYYADSVKGRFTISRDNAKNTVYLQMNSLKPEDTAVYYCNSYYQGYWGDFDYWGQGTQVTVSS
polyreactivity (PSR sort gate): high polyreactivity

QVQLVESGGGLVQAGGSLRLSCAASGFIFDYYTMGWYRQAPGKERELVASIRSSGSSTYYADSVKGRFTISRDNAKNTVYLQMNSLKPEDTAVYYCARRYVVNRDWGDDYWGQGTQVTVSS
polyreactivity (PSR sort gate): high polyreactivity

QVQLVESGGGLVQAGGSLRLSCAASGFIFEHYAMGWYRQAPGKERELVAAISRTGGRTYYADSVKGRFTISRDNAKNTVYLQMNSLKPEDTAVYYCAATAYSRLGVSSDYWGQGTQVTVSS
polyreactivity (PSR sort gate): high polyreactivity

QVQLVESGGGLVQAGGSLRLSCAASGFIFELYAMGWYRQAPGKERDLVAVISYDGGSTYYADSVKGRFTISRDNAKNTVYLQMNSLKPEDTAVYYCNTYAGLVSPSDLYDYWGQGTQVTVSS
polyreactivity (PSR sort gate): low polyreactivity

QVQLVESGGGLVQAGGSLRLSCAASGFIFEMYAMGWYRQAHGKERELVAAISSSGDSTYYADSVKGRFTISRDNEKNTVYLQMNSLIPEDNAVYYCATECGYALYDYWGQGTQVTVSS
polyreactivity (PSR sort gate): low polyreactivity

QVQLVESGGGLVQAGGSLRLSCAASGFIFERYTMGWYRHAPGKERELVAAISDSGGSTYYADSVKGRFTISRDNAKNTVYLQMNSLKPEDTAVYYCAAKFRNYRPSKYYYWGQGTQVTVSS
polyreactivity (PSR sort gate): high polyreactivity

QVQLVESGGGLVQAGGSLRLSCAASGFIFEYNAMGWYRQAPGKERELVAAITSSGGSTYYADSVKGRFTISRDNAKNTVYLQMNSLKPEDTAVYYCARVRRSAYYKDYYYWGQGTQVTVSS
polyreactivity (PSR sort gate): high polyreactivity

QVQLVESGGGLVQAGGSLRLSCAASGFIFFPYVMGWYRQAPGKEREFVAAITGDGGSTYYADSVKGRFTISRDNAKNTVYLQMNSLKPEDTAVYYCAAEFGLWYWDWAASEDYWGQGTQVTVSS
polyreactivity (PSR sort gate): high polyreactivity

QVQLVESGGGLVQAGGSLRLSCAASGFIFFTNAMGWYRQAPGKERELVAAITDDGSTYYADSVKGRFTISRDNAKNTVYLQMNSLKPEDTAVYYCNVVLQDPSYSWFWYDYDYWGQGTQVTVSS
polyreactivity (PSR sort gate): high polyreactivity

QVQLVESGGGLVQAGGSLRLSCAASGFIFFYYAMGWYRQAPGKERELVAAISASGGSTYYADSVKGRFTISRDNAKNTVYLQLNSLKPEDTAVYYCAARYRKAESARWEYGYWGQGTQVTVSS
polyreactivity (PSR sort gate): high polyreactivity

QVQLVESGGGLVQAGGSLRLSCAASGFIFGAYTMGWYRQAPGKESELVADISRRGGTTYYADSVKGRFTISRDNAKNTVYLQMNSLKPEDTAVYYCANVANFWYNTTLRGYYYWGQGTQVSVSS
polyreactivity (PSR sort gate): high polyreactivity

QVQLVESGGGLVQAGGSLRLSCAASGFIFGDNAMGWYRQAPGKERELVAAITYSGGSTYYADSVKGRFTISRDYAKNTVYLQMNSLKPEDTAVYDCAASNQWSSTYLTYGYYYWGQGTQVTVSS
polyreactivity (PSR sort gate): low polyreactivity

QVQLVESGGGLVQAGGSLRLSCAASGFIFGGYAMVWYRQAPGKERELVAAISSSGGSTYYADSVTGRFTISRDNAKNTVSLQMNSLKPEDTAVYYCAIVGWSRRYYYWGQGTQVTLSS
polyreactivity (PSR sort gate): high polyreactivity

QVQLVESGGGLVQAGGSLRLSCAASGFIFGHYAMGWYRQAPGKERELVAAIRSRGGDRTYADSVKGRFTISRDNAKNTVYLQMNSLKPEDTAVYYCAADGPGTSEDDYWGQGTQVTVSS
polyreactivity (PSR sort gate): high polyreactivity

QVQLVESGGGLVQAGGSLRLSCAASGFIFGINAMGWYRQAPGKERELVATITSGGGTNYADSVKGRFTISRDNAKNTVYLQMNSLKPEDTAVYYCAKAPDTQTSWSRQEGNYWGQGTQVTVSS
polyreactivity (PSR sort gate): low polyreactivity

QVQLVESGGGLVQAGGSLRLSCAASGFIFGKNAMGWYRQAPGKERELVAVISWRGSSTYYADSVKGRFTISRDNAKNTVYLQMNSLNPEDTAVYYCAARYPARGTLYYWGQGTQVTVSS
polyreactivity (PSR sort gate): low polyreactivity

QVQLVESGGGLVQAGGSLRLSCAASGFIFGLNALGWYRPAPGKERELDAAIRSASSTNYADSVKGRFTISRDNAKNTVFLQMNSLKPEDTAVYYCAAEYVTYQQGFWGYDYWGQGTQVTVSS
polyreactivity (PSR sort gate): low polyreactivity

QVQLVESGGGLVQAGGSLRLSCAASGFIFGLNAMGWYRQAPGKERELVAVIAFSGGSTYYADSVKGRFTISRDHAKNTVYLQMNSLKPEDTAVYYCNAVTRYPHPREYDYWGQGTQVTVSS
polyreactivity (PSR sort gate): high polyreactivity

QVQLVESGGGLVQAGGSLRLSCAASGFIFGLNAMGWYRQAPGKERELVAVIAFSGGSTYYADSVKGRFTISRDNAKNTVYLQMNSLKPEDTAVYYCNAVTRYPHPREYDYWGQGTQVTVSS
polyreactivity (PSR sort gate): high polyreactivity

QVQLVESGGGLVQAGGSLRLSCAASGFIFGLYAMGWYRQAPGKERELVAAISGSGGSTYYADSVKGRFTISRDNAKNTVYLQMNSLKPEDTAVYYCNRAQGVHTYVYRYGYWGQGTQVTVSS
polyreactivity (PSR sort gate): low polyreactivity

QVQLVESGGGLVQAGGSLRLSCAASGFIFGLYAMGWYRQAPGKERELVAAISRRGGSTYYADSVKGRFTISLDNAKNTVYLQMNSLKPEDTAVYYCATDHSYIDDWGQGTEVTVSS
polyreactivity (PSR sort gate): high polyreactivity

QVQLVESGGGLVQAGGSLRLSCAASGFIFGLYAMGWYRQAPGKERELVASISRRGGSTYYADSVKGRFTISRDNAKNTVYLQMNSLKPEDTAVYYCNAVGRLYLYGSWGQGTQVTVSS
polyreactivity (PSR sort gate): high polyreactivity

QVQLVESGGGLVQAGGSLRLSCAASGFIFGPNAMGWYRQAPGKERELVAAIRWSGSRTYYADSVKGRFTISRDNAKNTVYLQMNSLKPEDTAVYYCATTYGYYTYDYWGQGTQVTVSS
polyreactivity (PSR sort gate): high polyreactivity

QVQLVESGGGLVQAGGSLRLSCAASGFIFGPYAMGWYRQAPGKERELVADITIDSGSTYYADSVKGRFTISRDNAKNTVYLQMNSLKPEDTAVYYCATDYWNEYEYWGQGTQVTVSS
polyreactivity (PSR sort gate): low polyreactivity

QVQLVESGGGLVQAGGSLRLSCAASGFIFGSNAMGWYRQAPGKERELVAAIDSSGGRTYYADSVKGRFTISRDNAKNTVYLQMISLKPEDTAVYYCNVYRWSQLFEYDYWGQGTQVTVSS
polyreactivity (PSR sort gate): high polyreactivity

QVQLVESGGGLVQAGGSLRLSCAASGFIFGSYAMGWYRQAPGKERELVAAITSDGNTDYADSVKGRFTISRDNAKNTVYLQMNSLKPEDTAVYYCNKPYGAETALREFDYWGQGTQVTVSS
polyreactivity (PSR sort gate): low polyreactivity

QVQLVESGGGLVQAGGSLRLSCAASGFIFGSYTMGWYRQAPGKERELVAAITTGGSTNYADSVKGRFTISRDNAKNTVYLQMNSLKPEDTAVYYCNAVWYYRGNPDIYGGLDYWGQGTQVTVSS
polyreactivity (PSR sort gate): low polyreactivity

QVQLVESGGGLVQAGGSLRLSCAASGFIFGTNAMGWYRQAPGKERELVASISSTGGSTYYADSVKGRFTISRDNAKNTVYLQMNSLKPEDTAVYYCAADPYPEYIRYLPGVDYWGQGSQVTVSS
polyreactivity (PSR sort gate): low polyreactivity

QVQLVESGGGLVQAGGSLRLSCAASGFIFGTYAMGWYRQAPGKERELVAAISSGGSTYYADSVKGRFTISRDNAKNTVYLQMNSLKPEDTAVYYCAKEGGTYRIFNYWGQGTQVTVSS
polyreactivity (PSR sort gate): low polyreactivity

QVQLVESGGGLVQAGGSLRLSCAASGFIFGTYTMGWYRQAPGKERELVAAISKSSGSTYYADSVKGRFTISRDNAKNTVYLQMNSLKPEDTAVYYCAAPTRSYGTPPYDYWGQGTQVTVSS
polyreactivity (PSR sort gate): low polyreactivity

QVQLVESGGGLVQAGGSLRLSCAASGFIFGWNAMGWYRQAPGKERELVATITRGSTYYADSVKGRFTISRDNAKNTVYLQMNSLKPEDTAVYYCNVVYYGRWANYDYWGQGTQVTVSS
polyreactivity (PSR sort gate): low polyreactivity

QVQLVESGGGLVQAGGSLRLSCAASGFIFGWSGMGWYRLAPGKERELVAAITGSGVRTYYAASVKGRFTISRDNAENTVYLQMNRLKPEDTAVYYCARAGGYVGRGYKDQDGRGDYGGQGTQVTVSS
polyreactivity (PSR sort gate): high polyreactivity

QVQLVESGGGLVQAGGSLRLSCAASGFIFGYNAMGWYRQAPGKEREFVAAISWTGGRTYYADSVKGRFTISRDNAKNTVYLQMNSLKPEDTAVYYCAALRGWLPGTRTRYYYWGQGTQVTVSS
polyreactivity (PSR sort gate): high polyreactivity

QVQLVESGGGLVQAGGSLRLSCAASGFIFGYNAMGWYRQAPGKERELVAAITSRGDRTYYADSVKGRFTISRDNAKNTVYLQMNSLKPEDTAVYYCAKATRGYRSPYGSIGYYYWGLGTQVTVSS
polyreactivity (PSR sort gate): high polyreactivity

QVQLVESGGGLVQAGGSLRLSCAASGFIFGYNAMGWYRQAPGKERELVAALDSGDSTYYADSVKGRFTLSRDNAKNTVYLQMNSLKPEDTAVYYCATDVTFVYDFGYFQFDYWGQGTQVTVSS
polyreactivity (PSR sort gate): low polyreactivity

QVQLVESGGGLVQAGGSLRLSCAASGFIFGYYAMGWYRQAPGKERELVAAINKNGGSTYYADSVKGRFTISRDNAKNTVYLQMNSLKPEVTAVYYCAARARGYAWTYDYWGQGTQVTVSS
polyreactivity (PSR sort gate): high polyreactivity

QVQLVESGGGLVQAGGSLRLSCAASGFIFGYYAMGWYRQAPGKERELVAAINYNDDSTYYADSVKGRFTISRDNAKNTVYLQMNSLKPEDTAVYYCAARRFWPGNSYYYRYYYWGQGTQVTVSS
polyreactivity (PSR sort gate): low polyreactivity

QVQLVESGGGLVQAGGSLRLSCAASGFIFGYYAMGWYRQAPGKERELVAAITRSGGSTRYADSVKGRFTISRDKAKNTVYLQMNSLKPEDTAVYYCNAYAPRQLYGYDYWGQGTQVTVSS
polyreactivity (PSR sort gate): high polyreactivity

QVQLVESGGGLVQAGGSLRLSCAASGFIFGYYVMGLYTQAPGKERELVAAITTSGGSTYYADSVKGRFTISRDNAKNTVYLQMNSLKPEDTAVYYCAADGSPSLLDYWGQVTQVTVSS
polyreactivity (PSR sort gate): high polyreactivity

QVQLVESGGGLVQAGGSLRLSCAASGFIFHRYAMGWYRQAPGKERELVAAITGRGSSTYYADSVKGRFTISRDNAKNTVYLQMNCLKPEDTGVYYCNAYRYQVYDTGWFGYWGQGTQVTVSS
polyreactivity (PSR sort gate): high polyreactivity

QVQLVESGGGLVQAGGSLRLSCAASGFIFHTTVMVSYRQAPAKERELVAAISSGDSTYYADSVKGRFTISRDNAKNTVYLHMNSLKPEDTEVYYCARNVNAQKVLGGFDSWGQGTQVTVSS
polyreactivity (PSR sort gate): low polyreactivity

QVQLVESGGGLVQAGGSLRLSCAASGFIFIFYAMGWYRQAPGKERELVAAITWSDDSTYYADSVKGRFTISRDNAKNTVYLQMNSLKPEDTAVYYCAASYYWYHLRRKYDYWGQGTQVTVSS
polyreactivity (PSR sort gate): low polyreactivity

From the nanobody polyreactivity screen of Harvey et al. (2022)
